According to publication PMC8509813, “Effect of Structural Changes Induced by Deletion of ^54[sequence]^61 Sequence in αB-crystallin on Chaperone Function and Anti-Apoptotic Activity” (International Journal of Molecular Sciences, 2021):

B1: αB-crystallin with residues 54–61 deleted (natural protein, human, UniProt P02511 1-175, looked up)
chain: MDIAIHHPWIRRPFFPFHSPSRLFDQFFGEHLLESDLFPTSTSLSPFYLRPPSDTGLSEMRLEKDRFSVNLDVKHFSPEELKVKVLGDVIEVHGKHEERQDEHGFISREFHRKYRIPADVDPLTITSSLSSDGVLTVNGPRKQVSGPERTIPITREEKPAVTAAPKK
notes: No tag is mentioned; 306 kDa by MALS; also called αBΔ54–61; deletion mutant; source: E. coli BL21(DE3)pLysS, purified (ammonium sulfate precipitation, gel filtration twice)
B2: wild-type αB-crystallin (natural protein, human, UniProt P02511 1-175, looked up)
chain: MDIAIHHPWIRRPFFPFHSPSRLFDQFFGEHLLESDLFPTSTSLSPFYLRPPSFLRAPSWFDTGLSEMRLEKDRFSVNLDVKHFSPEELKVKVLGDVIEVHGKHEERQDEHGFISREFHRKYRIPADVDPLTITSSLSSDGVLTVNGPRKQVSGPERTIPITREEKPAVTAAPKK
notes: αB-crystallin, human, wild type; subunit of ~20 kDa that forms a homo-oligomer; also called αB-wt; WT protein; source: E. coli BL21(DE3)pLysS, purified (ammonium sulfate precipitation, gel filtration twice)

What was measured:
luciferase = luciferase (UniProt P08659 1-550 = luciferase); experiment: cell-based or functional assay
lysozyme = lysozyme (UniProt P00698 19-147); experiment: cell-based or functional assay
[1] = target: the molecule itself; experiment: SEC-MALS; peak 2 (crystallin) of the mixtures with citrate synthase at 0 min, before incubation; TSK G5000PWXL column, MALS and quasi-elastic light scattering; homo-oligomer of ~20 kDa subunits

Chain of lysozyme (P00698 19-147): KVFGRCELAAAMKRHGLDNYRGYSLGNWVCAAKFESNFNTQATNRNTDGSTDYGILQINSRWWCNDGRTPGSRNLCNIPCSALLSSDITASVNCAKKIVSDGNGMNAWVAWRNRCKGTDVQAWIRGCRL
Chain of luciferase (P08659 whole entry): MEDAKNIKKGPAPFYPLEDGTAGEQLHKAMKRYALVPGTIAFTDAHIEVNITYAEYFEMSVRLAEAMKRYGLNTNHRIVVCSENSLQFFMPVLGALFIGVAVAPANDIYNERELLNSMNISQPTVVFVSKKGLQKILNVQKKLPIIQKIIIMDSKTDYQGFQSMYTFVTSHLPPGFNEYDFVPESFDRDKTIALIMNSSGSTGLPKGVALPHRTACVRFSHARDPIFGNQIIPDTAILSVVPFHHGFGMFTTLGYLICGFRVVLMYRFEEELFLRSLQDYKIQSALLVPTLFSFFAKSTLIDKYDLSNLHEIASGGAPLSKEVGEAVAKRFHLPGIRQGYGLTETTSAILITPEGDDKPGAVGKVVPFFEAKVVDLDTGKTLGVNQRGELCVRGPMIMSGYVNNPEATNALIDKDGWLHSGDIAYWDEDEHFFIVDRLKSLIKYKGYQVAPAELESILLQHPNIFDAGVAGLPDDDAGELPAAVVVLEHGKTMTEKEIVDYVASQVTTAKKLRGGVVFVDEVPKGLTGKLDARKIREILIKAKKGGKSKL

Row | Binder | EC50: chaperone concentration that suppresses the aggregation of 1 µM luciferase (PBS, 37 °C, light scattering at 360 nm) by 50% (luciferase) [µM] | EC50: chaperone concentration that suppresses the aggregation of 10 µM lysozyme (2 mM DTT, PBS, 37 °C, light scattering at 360 nm) by 50% (lysozyme) [µM] | binding result [1]
1 | B1 | 9 | 1.8 | binds
2 | B2 | 48 | 2.8 | binds
